Reference: patent US20220169677A1 (INSERM INSTITUT NATIONAL DE LA SANTE ET DE LA RECHERCHE …, published 2022)

T1: recombinant human NRP-1 (human, UniProt O14786-2 22-644, limits assumed)
T1 construct: Coated on a 96-well plate at 200 ng/well; GenBank AAC51759.1 is printed only as the preferred definition of NRP-1; also called Neuropilin-1
T1 sequence (looked up): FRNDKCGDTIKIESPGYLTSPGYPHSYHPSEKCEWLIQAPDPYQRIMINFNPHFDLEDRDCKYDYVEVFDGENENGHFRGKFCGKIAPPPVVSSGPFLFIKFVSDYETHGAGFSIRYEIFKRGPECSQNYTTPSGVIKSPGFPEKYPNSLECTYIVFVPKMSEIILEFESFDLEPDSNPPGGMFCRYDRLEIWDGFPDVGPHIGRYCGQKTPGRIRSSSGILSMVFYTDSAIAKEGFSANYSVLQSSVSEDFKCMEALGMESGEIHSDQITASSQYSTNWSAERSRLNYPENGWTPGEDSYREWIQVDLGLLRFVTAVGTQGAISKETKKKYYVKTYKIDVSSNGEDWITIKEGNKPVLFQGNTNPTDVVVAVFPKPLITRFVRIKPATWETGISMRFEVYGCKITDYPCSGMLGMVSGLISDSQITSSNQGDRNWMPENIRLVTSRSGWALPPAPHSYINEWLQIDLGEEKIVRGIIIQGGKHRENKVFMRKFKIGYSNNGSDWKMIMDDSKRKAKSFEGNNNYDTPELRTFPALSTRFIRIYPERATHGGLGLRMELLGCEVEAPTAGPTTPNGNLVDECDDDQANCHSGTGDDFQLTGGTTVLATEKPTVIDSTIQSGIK


Each molecule was assayed against T1, recombinant human NRP-1 (assay: competition: inhibition of (bt)-VEGF-A165 binding to coated NRP-1).

Row | IC50 | Molecule
1 | 4.5 µM | KPRR (Parent tetrapeptide without Cys; 5) [KPRR (peptide derived from the VEGF-A165)]
2 | 80 µM | LPPR (Parent tetrapeptide without Cys; 3) [LPPR (active part of A7R)]

What follows are molecules tested against T1, recombinant human NRP-1 (assay: chemiluminescence competition: inhibition of (bt)-VEGF-A165 binding to coated NRP-1).
Description: The flat bottom surface of a 96-well plate was coated with 100 μL (200 ng/well) recombinant human NRP-1 and incubated overnight at 4° C. Non-specific binding was blocked by the incubation with 0.5% BSA in PBS. 50 μL of peptide dissolved in PBS in range concentrations and 50 μL (400 ng/mL) of human (bt)-VEGF-A₁₆₅ in PBS containing 4 μg/mL of heparin were added respectively. After 2 h incubation at room temperature the plate was washed and treated with streptavidin-horseradish peroxidase conjugate in PBS (1:8000). Chemiluminescence was quantified immediately after addition of 100 μL Chemiluminescent substrate. In a positive control only (bt)-VEGF-A₁₆₅ was present in wells, while, in negative control, wells were not coated by NRP-1. Percentages of inhibition were calculated by the following formula: […]

Row | IC50 | fold decrease in IC50 against the sequence without cysteine | Molecule
3 | 50 nM | 100 fold | H-Cys-Lys(hArg)-Dab-Oic-Arg-OH (peptide)
4 | 60 nM | 100 fold | H-Lys(Cys-hArg)-Dab-ΔPro-Arg-OH (peptide)
5 | 19000 nM |  | H-CTKPR-OH (TKPR (tuftsin) with an added N-terminal Cys; also called CTKPR) [H2N-Cys-Thr-Lys-Pro-Arg-OH]

Continued, molecule first:

Row | Molecule | IC50 | fold decrease in IC50 against the sequence without cysteine
6 | H-Cys-Lys(hArg)-Dab-ΔPro-Arg-OH (peptide) | 70 nM | 100 fold
7 | H-Lys(Cys-hArg)-Dab-Oic-Arg-OH (peptide) | 40 nM | 100 fold
8 | H-CKPRR-OH (KPRR (peptide derived from the VEGF-A165 C-terminus) with an added N-terminal Cys; also called CKPRR) [H2N-Cys-Lys-Pro-Arg-Arg-OH] | 100 nM | 
9 | H-CLPPR-OH (LPPR (active part of A7R) with an added N-terminal Cys; also called CLPPR) [H2N-Cys-Leu-Pro-Pro-Arg-OH] | 17000 nM | 
